Measured values from paper PMC3042367 (Biochemistry, 2010).

Biological target: R831b MerB (organomercurial lyase), unliganded (Serratia marcescens (plasmid R831b), UniProt P77072 1-212)
Assay: stopped-flow fluorescence kinetics

Chain of R831b MerB (organomercurial lyase), unliganded (P77072 whole entry): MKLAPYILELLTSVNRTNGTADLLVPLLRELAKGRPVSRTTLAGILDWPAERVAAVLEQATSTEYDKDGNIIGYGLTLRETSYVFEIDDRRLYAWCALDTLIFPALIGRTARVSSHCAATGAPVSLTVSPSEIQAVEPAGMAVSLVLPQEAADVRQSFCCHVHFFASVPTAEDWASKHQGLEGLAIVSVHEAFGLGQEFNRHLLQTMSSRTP

B1: HgNmerA, 1:1 Hg(II) complex of pDU1358 NmerA (domain or fragment, Serratia marcescens (plasmid pDU1358), UniProt P08662 1-69, looked up)
chain: MTHLKITGMTCDSCAAHVKEALEKVPGVQSAIVSYAKGAAQLALDPGTAPDALTAAVAGLGYKAMLADA
modifications: also: 1:1 Hg(II) complex bound to Cys11 and Cys14 (CXXC motif)
Kd: 660 µM
koff: 330 s⁻¹
kon: 500000 M⁻¹ s⁻¹
